Experiment: yeast display, Sf9 membrane polyspecificity reagent, FACS + sequencing; frameworks hold sequencing errors
In short: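 Genes from sorted yeast were amplified by colony PCR, read by MiSeq 2 × 250 sequencing and filtered on CDR length. These cells carried a synthetic nanobody library in Saccharomyces cerevisiae BJ5465 and were sorted by FACS into low and high (top ~1%) gates on anti-HA and streptavidin fluorescence. Polyreactivity is labelled according to the gate of origin.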

Sequence | polyreactivity (PSR sort gate)
QVQLVESGGGLVQAGGSLRLSCAASGSIFNANAMGWYRQAPGKERELVAGIRSGSSTNYADSVKGRFTISRDNAKNTVYFQMNSLKPEDTAVYYCATEGYWVYGFDDEDWGQGTQVTVSS | low polyreactivity
QVQLVESGGGLVQAGGSLRLSSAASGRIIDDNTMGWYRQAPGKERELVAAISVSGGRTYYADSVKGRFTISRDNAKNTVYLQMNSLNPEDTAVYFCAAARGGEYWGQGTQVTVSS | high polyreactivity
QVQLVESGGGLVQAGGSLRLSCAASGSTFYFNAMGWSRQAPGKERELVAGISSGGSTYYADSVKGRFTISRDNAKNTVYLQMNSLKPEDTAVYYCAATWLVERPVSYTEYGYWGQGTQVTVSS | low polyreactivity
QVQLVESGGGLVQAGGSLRLSCAASGRTFGPYAMGWYRQAPGKEREFVAAISYSGGSTYYADSVKGRFTISRDIAKNTVYLQMNSLKPEDTAVYYCAARLPSDHRPVVRGGYEMGYWGQGTQVTVSS | low polyreactivity
QVQLVESGGGLVQAGGILRLSCAASGLTFNYYDMGWYRQAPGKERELVAAISRSGTNTSYADSVKGRFTISRDNAKNTVYLQMNSLKPEDTAVYYCNSAGVYLAAGPYTANFNYNYWGQGTQVTVSS | low polyreactivity
QVQHVESGGGLVQAGGSLRLSCAASGRTFYKNTMGWYRQAPGKERELVAGISQRGGRTYYADSVKGRFTISRDNAKNTVYLQMNSLEPEDTAVYYCNKRRAAGGFPFDYWGQGTQVTVSS | high polyreactivity
QVQHVESGGGLVQAGGSLRLSCAASGRIFVRNAMGWYIQAPGKERELVAAITSGASTYYADSVKGRFTISRDNAKYTVYFQMYSVKPEDTAVSYCAAQAVIASWWTVDYYYWGQGTQVTVSS | high polyreactivity
QVQLQGSGGGLVQAGGSLRMSCAASAYIFQNVPKGLNRKEPGKERELVAGIDNGTSTNYADSVNGRFTISRDNAKNSVYLEMKSLKPVDTAVYYCAAAGQADDTLGYWGQGTQVTVSS | low polyreactivity
QVQLVESGGGLVQAGGSLRLSCAASGRTFGVNAMGWYRQAPGKERELVAAISRSTGSTYYADSVKGRFTISRDNAKNTVYLQMNSLKPEDTAVYYCARDVYYRGYKYGYWGQGTQVTVSS | high polyreactivity
QVQHVESGGGLVQAGGSHRLSCAASGRIFTQNSMGWYRQAPGKERELVAAINATDGSTYADSVKGRFTISRDNAKNTVYLQMKSLKREDTSVYYCYFTGGPYDFTRWSEFDHWGQGTQVTVSS | low polyreactivity
QVQLVESGGGLVQAGGILRLSCASSGSTFPTNAMGWYTQAPGKERELVAAISSSGGRTYYADSVKGRFTISRDNAKNTVDLQMNSLKPEDTAVYSCAAVWWRAYAVRMYYWGQGTQVTVSS | high polyreactivity
QVQLVESGGGLVQAGGSLRLSCAASGSIFVPYARGWYRQAPGKERELVAAISNGDSTYYADSVKGRFTISRDNAKNTVYLQMNSLKPEDTAVYYCAADAVKASVSYIVPYAAYDYWGQGTQVTVSS | low polyreactivity
QVQLVESGGGLVQAGGSLRLSCAASGRTVDWYAMGWYRQAPGTDRELVAVISSSGGRTYYADSVKGRFTISRDNAKNTVYLQMNRLKPEDTAVYYCATQNGSKRYSYYYWGQGTQVTVSS | high polyreactivity
QVQLVESGGGLVQAGGSLRLSCAASGIFASYAMGWYRQAPGKERELVADITWRGGNTFYADSVKGRFTISRDNAKNTVYLQMNSLKPEDTAVYYCAADYRPYLRYTVRGYGYWGQGTKVTVSS | high polyreactivity
QVQLVESGGGLVQAGGSLRLSCAASGLTLAPYAMGWYRQAPGKERELVAVITRRGGRTYYADSVKGRFTISRDNAKNTVYLQMNSLKPEDTAVYYCNADTANYADGLDYWGQGTQVTVSS | low polyreactivity
QVQLVESGGGLVQAGGSLRLSCAASGSIFYRNVMGWYRPAPGKERELVAVITSDGSTNYADSVKGRFTISRDNAKNTVYLQMNSLKPEVTAVYYCNAHYAFYGPGYPIYWIYEYWGQGTQVTVSS | low polyreactivity
QVQLVESGGGLVQAGGSLRLSCAASGITFQGNAMGWYRQAPGKEREFVAAISWSGDSTYYADSVKGRFTISRDNAKNTVYLQMNSLKPEDTAVYYCAASRVIPSYPYYKYDYWGQGTQVTVSS | low polyreactivity
QVQLVESGGGLVQAGGSLRLSCAASGRTFALYAMGSYRQAPGKERELVAGITFRGGSTYYADSVKGRFTISRDNAKNTVYLQMNSLKPEDTAVYYCAAVPRVNLSRYVYFWYDYWGQGTQVTVSS | high polyreactivity
QGQLVESGGGLVQAGGSLRVSCAASGYTFDSYAMGLYRQAPGKERELFAAITNGGSTYYADSVKGRFTISRDNAKKTVYLQLNSLKPEDTAVYYCATDDDQLDYLYDYWGPGTQVTVSS | low polyreactivity
QVQLQESVGGLVLAGGSLRLICSASANISVYGTMGWYRKAPGKEREFVATIDPGTNTNYADSVKDRFTISRDNAKNTVYLQMNSLKPEDTAVYYCEVEGGSDWPYRYWGQGTQVTVSS | low polyreactivity
QVQLVESGGGLVQAGGSLRLSCAASGSIFYPNAMGWYRQAPGKERELVAAITVGGGRTYYADSVKGRFTISRDNAKNTVYLQMNSLKPEDTAVYYCAAQEIVRYPRFDKYDYWGQGTQVTVSS | low polyreactivity
QVQLLESGGGLVQAGGSLRLSCAASGRTFRYYTMGWYRQAPGKEREFVDAISSTGGTYYADSVKGRFTISRDNAKNTVYLQMNCLKPEDTAVYYCAATFIQVVVNVQLYDYDYWGQGTQVTVSS | low polyreactivity

Sequence | polyreactivity (PSR sort gate)
QVQLVETGGGLVQAGGSLRLSCAGSGSTFTSYVMGWYRQAPGKERELVAAITSSGGDTYYADSVKGRFTISRDNAKNTVYLQMNSLKPEVTAVYYCATRSYYRSSYYRNRYPYDYWGQGTQVTVSS | low polyreactivity
QVQHVESGGGLVQAGGSLRLSCAASGSTFDVYALGWDRQAPGKERELVAAISESGSSTYYADSVKGRFTISRDNAKHTVYLQMNSLKPEDTAVYSCNALYYDWHPEYQVIFSYFYYWGQGTQVTVSS | low polyreactivity
QVQLVESGVGLVQAGGSLRLSCAASGSTFYSNAMGWNRQAPGKERELVASISWSSGSTYYADSVKGRFTISRDNAKNTVYLQMNSLKPEDTAVYYCATDAGGPYRFGYWGQGTQVTVSS | low polyreactivity
QVQLVESGGGLDQAGGSLRLSCAASGSTFTKNVMGWYRQAPGKERELVAAISSGGRTNYADSVKGRFTISRDNAKNTVYLQMNSLKPEDTAVYFCAADVGYFKSDYWGQGTQVTVSS | low polyreactivity
QVQLVESGGGLVQAGGSLRLSCAASGSTFNRYAMGWYRQAPGKERELVAAISWSGTRTYYADSVKGRFTISRDNAKNTVYLQMNSLKPEDTAVYYCAARRLYAGHQYDYWGQGTQVTVSS | high polyreactivity
QVQLVESGGGLVQAGGSLRLSCAASGLTFVYYTMGWYRQAPGKERELVAAISGSGDNTYYADSVKGRFTISRDNAKNTVYLQMNSLKPEDTAVYYCAADKSYYYYLFGYDYWGQGTQVTVSS | low polyreactivity
QVQLVESGGGLVQAGGSLRLSCAASGSIFVPYDMGWYRQAPGKERELVAVISTDDGTYYADSVKGRFTISRDNAKNTVYLQMNSLKPEDTAVYYCAADRWYREYDYWGQGTQVTVSS | low polyreactivity
QVQLVESGGGLVQEGGSLRLSCAASGFTFPYYAMGWYRQAPGKERELVAAITSSGTITYYADSVKGRFTISRDNAKNTVYLQMNSLKPEDTAVYYCAARFSSTRYLQWYYYWGQGTQVTVSS | high polyreactivity
QVQLVDSGGGLVQAGGSLRLSCAASGSIFYWYAMGWYRQAPGKERELVAAISWSGGSTFYADSVKGRFTISRDNAKNTVYLQMNSLKPEDTAVYYCAAETPYDYDYWGQGTQVTVSS | high polyreactivity
QVQLVESGGGLVQAGGSLRLSCAASGITFQRYAMGWYRQAPGKERELVAAITRGGSTNYADSVKGRFTISRDNAKNTVYLQMNSLKPEDTAVYYCAAGARYGYGYWGQGTQVTVSS | high polyreactivity
QVQLVESGGGLVQAGGSLRLSCAASGRIFAQYAMGWYRQAPGKERELVAAISSGGNTYYADSVKGRFTISRDNAKNTVYLQMNSLKPEDTAVYYCAASSRRYLWGFDYWGQGTQVTVSS | low polyreactivity
QVQLVESGGGLVQAGGSLRLSCAASGSTFYYYGMGWYRQAPGKERELVATISGSGGSTYYADSVKGRFTITRDNAKNTVYLQMNSLTQEDTSVYYCNKDVLPSQTYSNVYWGQGTQVSVSS | low polyreactivity
QVQLVESGGGLVQAGCSLRLICAASGFTFGRNAMGWYRQAPGKEREFVADISGSVGSTYYADSVKGRFTISRDNAKNTVYLQMNSLKPEDTAVYYCAADTLYTRWEFDYWGQGTLVTVSS | high polyreactivity
QDQLVESGGGLVQAGGSLRLSCAASGFTFSYYTMGWYRHAPGKERELVAAISSTGVSTYYADSVKGRFTISRDNAKNTVYLQMNSLKPEDTAVYYCAADYYGVYEYYYWGQGTQVTVSS | high polyreactivity
QVQLVESGGGLVQAGGSLRLSCAASGFIFTSYAMGWYRQAPGKERELVAAIDYSGGSTYYADSVKGRFTISRDNAKNTVYLQMNSLKPEDTAVYYCAAGDGLWPGSQTYDYWGQGTQVTVSS | low polyreactivity
QVQLVESGGGLVQAGGSLRLSCAASGSTFAIYAMGWYRQAPGKERELVAAITRGSTSYADSVKGRFTISRDNAKNTVYLQMNCLKPEDTAVYYCAAEYFLAQVYIYGYWGQGTQVTVSS | high polyreactivity
QVQLVESGGGLVQAGGSLRLSCAASGIIFGTYAMGWYRQAPGKERELVAAITRSGGSTYYADSVMGRFTISRDNAKNTVYLQMNSLKPEDTAVYYCAASSTWYGYYIYVFRAYDYWGQGTQGTVSS | low polyreactivity
QDQLVESGGGLVQAGGSLRLSCADYGNLVYNAKGWSRQAPGKERELVAAISARGGRTYYADSVKGRFTISRDNAKNTVYLQMNSLNPEDTAVYYCAARSYRLDSYYWGQGTQVSVSS | high polyreactivity
QVHLVESGVGLVQAGVSHRLSCAASGSTYRGYAMGWYRQAPGKERELVAPITYISDSTYYADSVKGRFTISRDNAKNTVYLQMNSLKPEDSAVYYCNDYYDGDWRYTSQETGDNWGQGTQVTVSS | low polyreactivity
QVQLVESGGGLVQAGGSLRLSCAASGSTFVAYAMGWYRQAPGKERELVAAISSVGRTNYADSVKGRFTISRDNAKYTVYLQMNSLKPEDTAVYYCAAVYVDRRKRSYYWGQGTQVTVSS | high polyreactivity
QVQLEESGGGLVQAGGSLRLSCAASGRIFWVNVMGWYRQAPGKERELVAAITRGASTYADSVKGRFTISRDNAKNTVYLQLNSLKPEDTAVYYCAVGISDFQYYDYVYWGQGTHVTVSS | high polyreactivity
